The text below walks through data of the supplement of paper PMC9112550, “Optimization of the antimicrobial peptide Bac7 by deep mutational scanning” (BMC Biology, 2022).

The subject of this data set is Escherichia coli TOP10. Briefly: shrunken log2 fold change of peptide-encoding DNA abundance (4.5 h post-induction vs induction); higher = less antimicrobial activity (less host growth inhibition). The conditions noted are these: time post-induction: 4.5 h; library: site-saturation at positions 5, 18, 19, 20.
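Note: peptides expressed intracellularly from a pBAD plasmid library in pooled LB shake-flask culture, induced with 0.3% L-arabinose, DNA abundance read by NGS, three biological replicates, DESeq2 with apeglm shrinkage.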

Take RRIRPRPPRLPRPRPRPQDRPRP: the “shrunken log2 fold change” value is -0.0277. The same measure for RRIRRRPPRLPRPRPRPSMTPRP: 0.315; for RRIRCRPPRLPRPRPRPMAFPRP: -0.22.

For the sequence RRIRERPPRLPRPRPRPANEPRP, the “shrunken log2 fold change” value was -0.916. The same measure for RRIRDRPPRLPRPRPRPGQCPRP: 0.131; for RRIRTRPPRLPRPRPRPMDPPRP: -0.107; for RRIRSRPPRLPRPRPRPQVKPRP: -0.146. The same measure for RRIRFRPPRLPRPRPRPFVIPRP: -0.479; for RRIRPRPPRLPRPRPRPEGQPRP: 0.798. For the sequence RRIRWRPPRLPRPRPRPLTDPRP, the “shrunken log2 fold change” value was -0.0316. Regarding RRIRKRPPRLPRPRPRPVAEPRP, the “shrunken log2 fold change” value worked out at 0.973. Then RRIRARPPRLPRPRPRPTIEPRP, with 0.225.

Consider RRIRERPPRLPRPRPRPRTSPRP, for which the “shrunken log2 fold change” value came to 0.0838.

For RRIRVRPPRLPRPRPRPKSMPRP, the “shrunken log2 fold change” value is -0.362.

On to RRIRARPPRLPRPRPRPPYDPRP, for which the “shrunken log2 fold change” value was 0.0295. RRIRSRPPRLPRPRPRPRGSPRP: the “shrunken log2 fold change” value was found to be 0.378. With RRIRWRPPRLPRPRPRPKPGPRP, the “shrunken log2 fold change” value came to 0.34. For RRIRIRPPRLPRPRPRPGFWPRP, the “shrunken log2 fold change” value came to 0.0561. Regarding RRIRHRPPRLPRPRPRPYCHPRP, the “shrunken log2 fold change” value was -0.0851. The same measure for RRIRSRPPRLPRPRPRPTWCPRP: 0.18; for RRIRDRPPRLPRPRPRPDLMPRP: 0.043; for RRIRKRPPRLPRPRPRPVKNPRP: 0.00783. For RRIRQRPPRLPRPRPRPTQIPRP, the “shrunken log2 fold change” value turned out to be 0.223. For RRIRIRPPRLPRPRPRPPIMPRP, the “shrunken log2 fold change” value is -0.494. Then RRIRMRPPRLPRPRPRPDTDPRP, with 0.0472. Then RRIRRRPPRLPRPRPRPAFSPRP, with -0.00711; and RRIRSRPPRLPRPRPRPDDEPRP, with 0.0222; and RRIRMRPPRLPRPRPRPDFAPRP, with 0.0706. As to RRIRKRPPRLPRPRPRPKLFPRP, the “shrunken log2 fold change” value came to 0.379. For the sequence RRIRMRPPRLPRPRPRPCVAPRP, the “shrunken log2 fold change” value came to 0.764. The same measure for RRIRNRPPRLPRPRPRPMPLPRP: -0.0789; for RRIRLRPPRLPRPRPRPECGPRP: 0.372; for RRIRNRPPRLPRPRPRPYYTPRP: -1.27. Then RRIRRRPPRLPRPRPRPMWAPRP, with 0.161.

RRIRQRPPRLPRPRPRPPVYPRP: the “shrunken log2 fold change” value is -0.0643. Regarding RRIRFRPPRLPRPRPRPVHYPRP, the “shrunken log2 fold change” value is -0.195. For the sequence RRIRPRPPRLPRPRPRPGTYPRP, the “shrunken log2 fold change” value was -0.147. Then RRIRARPPRLPRPRPRPKDYPRP, with -0.248. The same measure for RRIRYRPPRLPRPRPRPGEMPRP: -0.0218. Then RRIRVRPPRLPRPRPRPTTQPRP, with 0.0531. RRIRSRPPRLPRPRPRPHQHPRP: the “shrunken log2 fold change” value was -0.321. Then RRIRGRPPRLPRPRPRPFKDPRP, with -0.681. The same measure for RRIRVRPPRLPRPRPRPQACPRP: 1.56. Take RRIRWRPPRLPRPRPRPITRPRP: the “shrunken log2 fold change” value was -0.0637. The same measure for RRIRMRPPRLPRPRPRPHEIPRP: 0.356. Take RRIRERPPRLPRPRPRPLCKPRP: the “shrunken log2 fold change” value is -0.304. Then RRIRNRPPRLPRPRPRPGMVPRP, with -0.23; and RRIRCRPPRLPRPRPRPDVQPRP, with 0.0161. As to RRIRNRPPRLPRPRPRPAPQPRP, the “shrunken log2 fold change” value worked out at 0.182. Then RRIRCRPPRLPRPRPRPYAAPRP, with -0.269; and RRIRIRPPRLPRPRPRPQSMPRP, with -0.138. On to RRIRFRPPRLPRPRPRPFGLPRP, for which the “shrunken log2 fold change” value was -0.635. On to RRIRVRPPRLPRPRPRPKEYPRP, for which the “shrunken log2 fold change” value was -0.282. RRIRLRPPRLPRPRPRPDVLPRP: the “shrunken log2 fold change” value was -0.00959.

As to RRIRYRPPRLPRPRPRPASSPRP, the “shrunken log2 fold change” value is -0.0244. The same measure for RRIRGRPPRLPRPRPRPDHGPRP: -0.0602.

In the case of RRIRSRPPRLPRPRPRPHSMPRP, the “shrunken log2 fold change” value is -0.521. The same measure for RRIRSRPPRLPRPRPRPGCCPRP: 0.396. With RRIRIRPPRLPRPRPRPYCRPRP, the “shrunken log2 fold change” value was determined as 0.182. Then RRIRVRPPRLPRPRPRPTPIPRP, with 0.186. With RRIRKRPPRLPRPRPRPSWIPRP, the “shrunken log2 fold change” value was -0.487.

Regarding RRIRARPPRLPRPRPRPAGEPRP, the “shrunken log2 fold change” value came out at 0.921.

For RRIRTRPPRLPRPRPRPWDCPRP, the “shrunken log2 fold change” value is -0.000687. The same measure for RRIRIRPPRLPRPRPRPKYCPRP: 0.00104; for RRIRVRPPRLPRPRPRPSCLPRP: -0.618; for RRIRFRPPRLPRPRPRPEFIPRP: -0.523. In the case of RRIRLRPPRLPRPRPRPQCCPRP, the “shrunken log2 fold change” value is 0.0421. Then RRIRFRPPRLPRPRPRPGKVPRP, with -0.216; and RRIRGRPPRLPRPRPRPHNRPRP, with 0.0391.

For RRIRARPPRLPRPRPRPFYGPRP, the “shrunken log2 fold change” value is -0.0165. Then RRIRRRPPRLPRPRPRPGRCPRP, with 0.27; and RRIRYRPPRLPRPRPRPEARPRP, with 0.105; and RRIRQRPPRLPRPRPRPSCNPRP, with -0.683. Then RRIRTRPPRLPRPRPRPNAYPRP, with -0.195. Take RRIRDRPPRLPRPRPRPKRYPRP: the “shrunken log2 fold change” value was -0.236.

For RRIRPRPPRLPRPRPRPRSQPRP, the “shrunken log2 fold change” value came out at 0.263. Consider RRIRARPPRLPRPRPRPITMPRP, for which the “shrunken log2 fold change” value was -0.231. Then RRIRRRPPRLPRPRPRPNYMPRP, with -0.605; and RRIRVRPPRLPRPRPRPNPAPRP, with 0.31. Consider RRIRTRPPRLPRPRPRPIMRPRP, for which the “shrunken log2 fold change” value came out at 0.25. For RRIRRRPPRLPRPRPRPRPIPRP, the “shrunken log2 fold change” value came to 0.945. On to RRIRTRPPRLPRPRPRPHNYPRP, for which the “shrunken log2 fold change” value was -0.329.

RRIRLRPPRLPRPRPRPKHSPRP: the “shrunken log2 fold change” value was -0.107. Then RRIRVRPPRLPRPRPRPSMGPRP, with -0.399. On to RRIRGRPPRLPRPRPRPGMMPRP, for which the “shrunken log2 fold change” value was -0.0297. Then RRIRCRPPRLPRPRPRPIAAPRP, with 0.549; and RRIRARPPRLPRPRPRPMPPPRP, with 0.3; and RRIRLRPPRLPRPRPRPYDNPRP, with -1.57. Then RRIRGRPPRLPRPRPRPWWYPRP, with -0.119; and RRIRLRPPRLPRPRPRPKFFPRP, with 0.002; and RRIRWRPPRLPRPRPRPCQDPRP, with -0.0575. Then RRIRQRPPRLPRPRPRPYPLPRP, with -0.73. Regarding RRIRVRPPRLPRPRPRPCKIPRP, the “shrunken log2 fold change” value is -0.376.

RRIRRRPPRLPRPRPRPPETPRP: the “shrunken log2 fold change” value turned out to be 0.831. The same measure for RRIRARPPRLPRPRPRPTMHPRP: 0.354; for RRIRVRPPRLPRPRPRPDSMPRP: -0.103. On to RRIRTRPPRLPRPRPRPVPAPRP, for which the “shrunken log2 fold change” value stood at 0.35. Regarding RRIRYRPPRLPRPRPRPVGWPRP, the “shrunken log2 fold change” value was determined as 0.344. Consider RRIRGRPPRLPRPRPRPRRVPRP, for which the “shrunken log2 fold change” value stood at 0.485. On to RRIRIRPPRLPRPRPRPIRAPRP, for which the “shrunken log2 fold change” value was -0.634. Consider RRIRMRPPRLPRPRPRPESRPRP, for which the “shrunken log2 fold change” value came to 2.68.

As for RRIRTRPPRLPRPRPRPSRLPRP, the “shrunken log2 fold change” value is 0.0405. Then RRIRVRPPRLPRPRPRPCRGPRP, with 1.11; and RRIRNRPPRLPRPRPRPLCHPRP, with -0.359; and RRIRRRPPRLPRPRPRPDLSPRP, with -0.0391. RRIRSRPPRLPRPRPRPCQKPRP: the “shrunken log2 fold change” value was 0.185. Then RRIRVRPPRLPRPRPRPQRNPRP, with -0.0128.

Turning to RRIRKRPPRLPRPRPRPRPMPRP, the “shrunken log2 fold change” value came out at 0.585.

Turning to RRIRNRPPRLPRPRPRPVSFPRP, the “shrunken log2 fold change” value worked out at 0.0749. Consider RRIRMRPPRLPRPRPRPLGVPRP, for which the “shrunken log2 fold change” value was 0.8.

RRIRVRPPRLPRPRPRPLLFPRP: the “shrunken log2 fold change” value is -0.141. For RRIRPRPPRLPRPRPRPKGQPRP, the “shrunken log2 fold change” value stood at 0.205. Then RRIRERPPRLPRPRPRPSKCPRP, with -0.488; and RRIRMRPPRLPRPRPRPSRVPRP, with 0.885. As for RRIRHRPPRLPRPRPRPALLPRP, the “shrunken log2 fold change” value came out at 0.284.

Regarding RRIRSRPPRLPRPRPRPQGEPRP, the “shrunken log2 fold change” value was -0.0953.

As to RRIRIRPPRLPRPRPRPPMIPRP, the “shrunken log2 fold change” value is -0.112. The same measure for RRIRHRPPRLPRPRPRPHLMPRP: -0.177; for RRIRMRPPRLPRPRPRPHYMPRP: -0.425. Turning to RRIRSRPPRLPRPRPRPFRFPRP, the “shrunken log2 fold change” value is -0.21.

RRIRTRPPRLPRPRPRPAMIPRP: the “shrunken log2 fold change” value was -0.0108. The same measure for RRIRERPPRLPRPRPRPQLEPRP: -0.0385; for RRIRERPPRLPRPRPRPCAQPRP: -0.00638; for RRIRIRPPRLPRPRPRPSIIPRP: -0.866. On to RRIRERPPRLPRPRPRPLCTPRP, for which the “shrunken log2 fold change” value was -0.364.
